Experimental data as given in patent US20200332307.

Key:
[1] = test system: TALE5 synthetic transcription factor (TAL DNA-binding domain targeting ZmBBM promoter + activation domain) (synthetic (Xanthomonas TAL effector)?); test: cell_activity; details: endogenous BBM mRNA by qRT-PCR in maize protoplasts, 24 h; text p298 cites SEQ ID NO: 218 but FIG. 3 legend assigns TALE4-6 to SEQ 270-272
[2] = test system: TALE1 synthetic transcription factor (TAL DNA-binding domain targeting ZmWUS promoter + activation domain) (synthetic (Xanthomonas TAL effector)?); test: cell_activity; details: endogenous WUS mRNA by qRT-PCR in maize protoplasts, 24 h

Row | Sequence | activity (fold induction) [1] | activity (fold induction) [2]
1 | TCCTCGAATCATTCTAAGAAGAAAC (double strand) [TALE5 target site in ZmBBM promoter] | 490 | 
2 | TCCCGCTCTCGCTCTCTGC (double strand) [TALE1 target site in ZmWUS promoter] |  | 60
